# Target: unmodified guanylate-binding protein 1 (hGBP1) (human) (UniProt P32455)
# Assay: concentration-dependent GTPase activity
substance,measurement,value
unmodified guanylate-binding protein 1 (hGBP1) (from UniProt P32455 1-592) (enzyme),Kd,4 µM

# From paper PMC2903825
